Experimental findings from US20240239878A1 (SHANGHAI QILU PHARMACEUTICAL RESEARCH AND DEVELOPMENT CENTRE, published 2024) are described below.

Like-named read-outs stand apart in the source and are kept apart here.

Assay [1] concerns the target T1, human DLL3 on SHP-77 cells (human, UniProt Q9NYJ7 27-618).
T1 construct: also called DLL3-expressing cells (SHP-77)
T1 sequence: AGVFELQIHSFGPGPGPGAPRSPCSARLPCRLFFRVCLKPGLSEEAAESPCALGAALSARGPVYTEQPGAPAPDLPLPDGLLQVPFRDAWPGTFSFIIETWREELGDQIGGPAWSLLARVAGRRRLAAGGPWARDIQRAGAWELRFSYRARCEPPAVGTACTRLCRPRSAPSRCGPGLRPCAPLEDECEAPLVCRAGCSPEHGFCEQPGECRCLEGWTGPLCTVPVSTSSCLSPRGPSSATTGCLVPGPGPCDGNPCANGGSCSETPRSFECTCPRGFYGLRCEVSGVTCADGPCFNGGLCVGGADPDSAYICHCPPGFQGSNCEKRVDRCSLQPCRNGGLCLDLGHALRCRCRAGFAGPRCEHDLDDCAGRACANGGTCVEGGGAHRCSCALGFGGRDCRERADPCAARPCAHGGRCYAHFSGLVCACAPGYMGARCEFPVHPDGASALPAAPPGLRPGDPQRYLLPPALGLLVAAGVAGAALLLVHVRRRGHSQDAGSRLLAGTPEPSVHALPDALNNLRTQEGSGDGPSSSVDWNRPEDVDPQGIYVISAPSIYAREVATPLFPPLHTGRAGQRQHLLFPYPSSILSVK
The assay can be described thus: flow cytometry, SHP-77 cells. The procedure:
(§1) Monoclonal selection was performed, and the expression level of DLL3 protein in the monoclonal cells were identified by flow cytometry. The culture was expanded and stored in storage for later use. SHP-77 and HEK293-cyno DLL3 cells were cultured. The culture medium for SHP-77 cells were RPMI1640+10% FBS, and the culture medium for HEK293 cyno DLL3 cells were DMEM+10% FBS+200 μg/ml Hygromycin. The cells were cultured in a T75 cell culture flask at a 37° ° C. in a 5% CO₂ incubator. When using cells, they are washed with sterile DPBS, digested with 0.25% trypsin EDTA for about 5 minutes, and then stopped with a complete medium.
(§2) The digested cells were centrifuged at 1000 rpm for 5 min at room temperature. The supernatant was discarded and the cells were resuspended in 100 μL of 1% BSA (in PBS). The cells were counted and adjusted to a cell density of 1E6/m. The dilute cells were seeded in a 96-well round-bottom culture plate (corning 3799), and centrifuged at 1500 rpm for 5 min at 4° C. The supernatant was discarded and the cells were stored at 4° C. until use. Antibody samples to be tested were diluted with 1% BSA (in PBS) at a starting concentration of 100 nM, downwards by a 10-fold gradient for 7 concentrations. The cells were resuspended with the diluted antibody at 100 μL/well and incubated for 1 hour at 4° C. The cells were centrifuged at 1500 rpm for 5 minutes at 4° C. and the supernatant was discarded. The cells were resuspended and washed with 160 μL of 1% BSA (in PBS), centrifuged at 1500 rpm for 5 minutes at 4° C. The supernatant was discarded. The secondary antibody (goat anti human IgG Fc PE) was diluted 1:200 with 1% BSA (in PBS) according to the manufacturer's instructions and the cells were resuspended with the diluted secondary antibody. 100 μL/well, and incubated for 0.5 h at 4° C. The cells were centrifuged at 1500 rpm for 5 minutes at 4° C. and the supernatant was discarded. The cells were resuspended and washed with 160 μL of 1% BSA (in PBS), centrifuged at 1500 rpm for 5 minutes at 4° C. The supernatant was discarded. The cells were resuspended in 100 μL of 1% BSA (in PBS), and filtered across a 300 mesh gauze. The mean fluorescence intensity of the PE channels was measured by flow cytometry.
On the technique in general: In flow cytometry, cells or beads pass a laser one at a time.

The target in assay [2] is T2, Cynomolgus monkey DLL3 on HEK293 cells (HEK293-cyno DLL3) (Cynomolgus monkey, UniProt Q9NYJ7 27-618 (human entry)).
T2 chain: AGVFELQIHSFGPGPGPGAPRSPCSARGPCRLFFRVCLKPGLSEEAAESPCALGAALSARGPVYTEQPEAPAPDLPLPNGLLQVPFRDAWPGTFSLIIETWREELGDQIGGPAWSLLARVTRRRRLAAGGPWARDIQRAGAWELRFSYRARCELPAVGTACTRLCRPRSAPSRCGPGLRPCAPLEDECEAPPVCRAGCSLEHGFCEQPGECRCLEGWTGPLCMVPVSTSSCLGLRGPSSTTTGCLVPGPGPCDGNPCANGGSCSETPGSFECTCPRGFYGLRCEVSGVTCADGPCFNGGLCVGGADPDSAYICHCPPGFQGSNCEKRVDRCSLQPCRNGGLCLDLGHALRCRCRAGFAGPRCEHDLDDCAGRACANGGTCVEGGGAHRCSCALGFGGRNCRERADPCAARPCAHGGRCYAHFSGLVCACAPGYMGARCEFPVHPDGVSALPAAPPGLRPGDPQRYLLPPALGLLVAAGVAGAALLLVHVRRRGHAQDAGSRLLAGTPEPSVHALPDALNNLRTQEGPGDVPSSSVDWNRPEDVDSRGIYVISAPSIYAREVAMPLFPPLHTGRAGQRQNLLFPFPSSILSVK
Briefly: flow cytometry, HEK293-cyno DLL3 cells. How it is done:
as §1, §2

In assay [3] the target is T2, Cynomolgus monkey DLL3 on HEK293 cells …. The assay can be described thus: flow cytometry, HEK293-cyno DLL3 cells. The procedure: (§3) SHP-77 and HEK293-cyno DLL3 cells were cultured. The culture medium for SHP-77 cells were RPMI1640+10% FBS, and the culture medium for HEK293 cyno DLL3 cells were DMEM+10% FBS+200 μg/ml Hygromycin. The cells were cultured in a T75 cell culture flask at a 37° C. 5% CO₂ incubator. When using cells, they are washed with sterile DPBS, digested with 0.25% trypsin EDTA for about 5 minutes, and then stopped with a complete medium.
as §2, with “antibody,” for “antibody.”
(§4) The analyzed mean fluorescence intensity was imported into Graphpad to analyze the median-binding concentration (hereinafter referred to as EC50) of antibody and cell and the top mean fluorescence intensity (Top MFI).

Assay [4] deals with T1, human DLL3 on SHP-77 cells. Briefly: flow cytometry, SHP-77 cells. How it is done:
as §3
as §2, with “antibody,” for “antibody.”
as §4
The source holds these as a separate data set.

In assay [5] the target is T3, human DLL3 antigen protein (Kactus Biosystems, Cat. No. DLL-HM103) (human, UniProt Q9NYJ7 27-492).
T3 sequence: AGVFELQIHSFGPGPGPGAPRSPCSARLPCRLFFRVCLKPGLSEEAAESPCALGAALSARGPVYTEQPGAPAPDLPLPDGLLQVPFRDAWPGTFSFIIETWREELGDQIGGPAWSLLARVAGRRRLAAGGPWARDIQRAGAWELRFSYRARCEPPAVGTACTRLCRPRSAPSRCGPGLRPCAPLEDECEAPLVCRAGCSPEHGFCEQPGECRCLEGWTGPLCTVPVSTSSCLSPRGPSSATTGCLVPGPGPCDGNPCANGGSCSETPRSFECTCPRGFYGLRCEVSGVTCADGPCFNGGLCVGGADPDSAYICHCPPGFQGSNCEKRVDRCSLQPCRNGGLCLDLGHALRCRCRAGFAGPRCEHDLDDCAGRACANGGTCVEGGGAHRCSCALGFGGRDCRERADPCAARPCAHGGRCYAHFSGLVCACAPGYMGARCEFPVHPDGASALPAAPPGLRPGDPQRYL
The assay can be described thus: SPR (Biacore 8K), antibody captured on anti-human Fc, DLL3 in solution. How it is done:
The affinity and kinetic properties of the humanized anti-DLL3 antibody to human DLL3 were analyzed using a Biacore 8K instrument. CM5 chips were activated with EDC and NHS, followed by immobilization of anti-human Fc murine mAb and blocked with ethanolamine.
Human DLL3 was diluted two-fold serially to serial concentrations (100 nM-0.39 nM) and associated for 90 s and dissociated for 600 s at a flow rate of 50 μL/min.
After completion of each round of the experiment, the captured antibody was removed together with the antigen by washing with a 3M MgCl₂ solution at a flow rate of 30 μL/min for 30 s to complete the regeneration of the chip. The raw data were analyzed using Biacore Insight Evaluation Software (3.0.12.15655) software and fitted with a (1:1) Langmuir model with.

In assay [6] the target is T1, human DLL3 on SHP-77 cells. Briefly: flow cytometry, SHP-77 cells. The procedure: SHP-77 cells were cultured. The culture medium for SHP-77 cells was RPMI1640+10% FBS. The cells were cultured in a T75 cell culture flask at a 37° C. 5% CO₂ incubator. When using cells, they are washed with sterile DPBS, digested with 0.25% trypsin EDTA for about 5 minutes, and then stopped with a complete medium.
as §2, with “plated” for “seeded”, “antibody,” for “antibody.”, “µL/well,” for “μL/well,”
as §4
The source holds these as a separate data set.

B1: DLL3-12 camelid-derived anti-DLL3 chimeric antibody (antibody, human IgG1, V domains shown)
VH: QVQLVESGGGLVQPGESLRLSCAGSGFAFSSYDMHWVRQAPGKDFEWVSSISRDGRGPRYADFVKGRFTISKDNGRNMLYLQLNSLEIEDTAMYYCSKGYPIMGGTTQGTQVTVSS
What is called EC50 is the concentration giving half of the maximal effect. For the molecule B1, the 50% effective concentration (EC50) turned out to be 0.092 nM in assay [1], 0.073 nM in assay [2], 1.38 nM in assay [3] and 0.114 nM in assay [4]. The “Top MFI” value in assay [1] is 886 MFI; in assay [2], 220 MFI; in assay [3] it was 232 MFI; in assay [4], 935 MFI.

B2: H-46A5A4 mouse hybridoma-derived humanized anti-DLL3 antibody (antibody, V domains shown)
VH: QVQLVQSGAEVKKPGASVKVSCKASGYTFTDHTIHWVRQAPGQGLEWMGYIYPRDGYTMYNEKFKGRVTMTRDTSTSTVYMELSSLRSEDTAVYYCARAFHALDYWGQGTLVTVSS
VL: DIQMTQSPSSLSASVGDRVTITCSASQGISNYLNWYQQKPGKAPKLLIYYTSSLHSGVPSRFSGSGSGTDFTFTISSLQPEDIATYYCQQYSKLPYTFGGGTKLEIK
By Kd is commonly meant the free concentration of one partner at which half of the binding sites on the other are occupied at equilibrium, for simple one-to-one binding. The term koff denotes the rate constant with which the complex falls apart. As a reminder, the kon is a measure of how fast the partners come together. As for B2, in assay [5], the Kd is 0.811 nM, the koff was determined as 0.000178 s⁻¹ and the kon turned out to be 219000 M⁻¹ s⁻¹. In addition, in assay [6], the EC50 came out at 1.35 nM and the “Top MFI” value is 1520 MFI.

B3: DLL3-276 camelid-derived anti-DLL3 chimeric antibody (antibody, human IgG1, V domains shown)
VH: QVQLVESGGGSVQAGGSLNLSCATSGSTASTTYMGWFRQAPGKGREGVAIIYTARDNPWYANSVKGRFIISQDNAKKTLYLQMNTLKPEDTATYYCAATLANPTRTAWGQGTLVTVSS
B3: the EC50 in assay [1] is 0.374 nM; in assay [2], 0.897 nM; in assay [3], 2.08 nM; in assay [4], 0.396 nM. The “Top MFI” value is 763 MFI in assay [1], 175 MFI in assay [2], 179 MFI in assay [3] and 782 MFI in assay [4].
